Patent US20230094162A1
Read-outs that look alike come from different tables or passages of the source. Values belong to the substance of their own block, whether it stands above or below them.

Legend:
[1] = target: CD137 expressed on the cell surface (CHO/CD137 cells) (UniProt Q07011); test: cell-based or functional assay
[2] = target: CD137 expressed on the cell surface (CHO/CD137 cells) (UniProt Q07011); test: flow cytometry on CHO/CD137 cells (Surface Binding)
[3] = target: CD137 expressed on the cell surface (CHO/CD137 cells) (UniProt Q07011); test: flow cytometry (FACS) on CHO cells expressing CD137, MFI
[4] = target: PD-L1 expressed on the cell surface (CHO/PD-L1 cells) (UniProt Q9NZQ7)
[5] = target: PD-L1 expressed on the cell surface (CHO/PD-L1 cells) (UniProt Q9NZQ7); test: flow cytometry (FACS) on CHO cells expressing PD-L1, MFI

Sequence of CD137 expressed on the cell surface (CHO/CD137 cells) (Q07011 24-255 limits assumed): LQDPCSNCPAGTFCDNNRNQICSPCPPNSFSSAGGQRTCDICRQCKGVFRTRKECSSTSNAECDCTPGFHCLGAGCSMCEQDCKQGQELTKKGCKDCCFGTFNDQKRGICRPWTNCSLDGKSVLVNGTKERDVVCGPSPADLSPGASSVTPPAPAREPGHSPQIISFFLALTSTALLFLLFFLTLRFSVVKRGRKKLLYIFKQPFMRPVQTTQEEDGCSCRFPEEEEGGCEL
Sequence of PD-L1 expressed on the cell surface (CHO/PD-L1 cells) (Q9NZQ7 19-290): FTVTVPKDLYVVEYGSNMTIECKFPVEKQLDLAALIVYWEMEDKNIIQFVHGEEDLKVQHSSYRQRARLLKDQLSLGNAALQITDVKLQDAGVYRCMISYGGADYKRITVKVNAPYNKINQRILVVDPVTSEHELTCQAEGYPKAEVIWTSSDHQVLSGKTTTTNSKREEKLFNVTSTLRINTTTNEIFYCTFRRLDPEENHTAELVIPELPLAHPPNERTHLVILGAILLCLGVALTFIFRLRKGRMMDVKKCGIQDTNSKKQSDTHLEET

Reporter Assay (RLU), 0.08 µg/mL [1]: 1250 RLU
Reporter Assay (RLU), IgG conc 0.02 µg/mL [1]: 1020 RLU
Reporter Assay (RLU), IgG conc 0.1 µg/mL [1]: 1240 RLU
MFI max [2]: 149 MFI
Substance: non-specific mAb (antibody)

EC50 (read off the curve) [3]: 0.06 µg/mL
Substance: replica of the agonistic anti-CD137 mAb urelumab (r-urelumab) (antibody)

EC50 (read off the curve) [4]: 0.3 µg/mL
EC50 (read off the curve) [5]: 0.01 µg/mL
Substance: replica of the anti-PD-L1 antibody atezolizumab (r-atezolizumab)
